B1: 51B12 H0L3 (antibody)
chain 1: not shown
chain 2: DIVLTQSPDSLAVSLGERATINCRASKSVSTSGYSYMHWYQQKPGQPPKFLIYLASNLESGVPDRFSGSGSGTDFTLTISSLQAEDVAVYYCQHSREVPYTFGGGTKVEIKRTVAAPSVFIFPPSDEQLKSGTASVVCLLNNFYPREAKVQWKVDNALQSGNSQESVTEQDSKDSTYSLSSTLTLSKADYEKHKVYACEVTHQGLSSPVTKSFNRGEC
B2: 63A11 H0L1 (antibody)
chain 1: not shown
chain 2: B1 chain 2 with F50L, V98L, Y100L
B3: 63A11_H2/_L0 (antibody)
chain 1: not shown
chain 2: B1 chain 2 with L4M, F50L, V98L, Y100L
B4: 63A11_H0/_L1 (antibody)
chain 1: not shown
chain 2: B1 chain 2 with F50L, V98L, Y100L
B5: 63A11_H1/_L0 (antibody)
chain 1: not shown
chain 2: B1 chain 2 with L4M, F50L, V98L, Y100L
B6: 63A11_H3/_L0 (antibody)
chain 1: not shown
chain 2: B1 chain 2 with L4M, F50L, V98L, Y100L
B7: 63A11_H0/_L0 (antibody)
chain 1: not shown
chain 2: B1 chain 2 with L4M, F50L, V98L, Y100L
B8: 63A11_H2/_L1 (antibody)
chain 1: not shown
chain 2: B1 chain 2 with F50L, V98L, Y100L
B9: 63A11_H1/_H1 (antibody)
chain 1: not shown
chain 2: B1 chain 2 with F50L, V98L, Y100L
B10: 63A11_H3/_L1 (antibody)
chain 1: not shown
chain 2: B1 chain 2 with F50L, V98L, Y100L
B11: 63A11 parental antibody (antibody, V domains shown)
VH: EVQLVESGGGLVKPGGSRKLSCAASGFTFSDHGMHWVRQAPEKGLEWVAYISSGSSAIFYADTVKGRFTMSRDNAKNTLFLQMTSLRSEDTAMYFCARWTNLYAMDYWGQGTSVTVSS
VL: DIVLTQSPASLAVSLGQRATISCRASKSVSTSGYSYMHWYQQKPGQPPKLLIYLASNLESGVPARFSGSGSGTDFTLNIHPVEEEDAATYYCQHSRELPLTFGAGTKLELKR
B12: 63A11 H2/L1 (antibody)
chain 1: not shown
chain 2: B1 chain 2 with F50L, V98L, Y100L
B13: 63A11 H1/L1 (antibody)
chain 1: not shown
chain 2: B1 chain 2 with F50L, V98L, Y100L
B14: 63A11 H3/L1 (antibody)
chain 1: not shown
chain 2: B1 chain 2 with F50L, V98L, Y100L
B15: 63A11 H0/L0 (antibody)
chain 1: not shown
chain 2: B1 chain 2 with L4M, F50L, V98L, Y100L
B16: 63A11 H0/L1 (antibody)
chain 1: not shown
chain 2: B1 chain 2 with F50L, V98L, Y100L
B17: 63A11 H3/L0 (antibody)
chain 1: not shown
chain 2: B1 chain 2 with L4M, F50L, V98L, Y100L
B18: 63A11 H1/L0 (antibody)
chain 1: not shown
chain 2: B1 chain 2 with L4M, F50L, V98L, Y100L
B19: 63A11 H2/L0 (antibody)
chain 1: not shown
chain 2: B1 chain 2 with L4M, F50L, V98L, Y100L
B20: 51B12H0L1 (antibody)
chain 1: not shown
chain 2: B1 chain 2 with F50L
B21: 51B12 H0L0 (antibody)
chain 1: not shown
chain 2: B1 chain 2 with L4M, F50L
B22: *51B12 H0L2 (antibody)
chain 1: not shown
chain 2: B1 chain 2 with L4M

Residue numbers refer to the chain shown, from its start.

One assay addresses T1, human ZIP12 extracellular domain expressed as a GST fusion protein (UniProt Q504Y0 1-202). The experiment in a line: SPR; summary value.
For the molecule B1, the Kd worked out at 0.7 nM.

In turn, B2 returned a Kd of 0.9 nM.

The next assay concerns the target T1, human ZIP12 extracellular domain …. The experiment in a line: SPR; replicate 1.
Molecule B3 yielded a Kd of 2.1 nM.

On to B4, for which the Kd is 0.888 nM.

Molecule B5 came in with a dissociation constant Kd of 1.32 nM.

B6: the Kd is 1.23 nM.

Molecule B7 showed a Kd of 2.38 nM.

Regarding B8, the equilibrium dissociation constant (Kd) turned out to be 0.97 nM.

For the molecule B9, binding was put at a Kd of 1.82 nM.

As for B10, the affinity, expressed as Kd, was 1.28 nM.

In turn, B11 yielded a Kd of 0.757 nM.

The next assay deals with human ZIP12 on human ZIP12 expressing transfectant cells (UniProt Q504Y0 1-691). The experiment in a line: flow cytometry.
On to B12, for which the EC50 was 0.586 µg/mL.

In turn, B13 displayed an EC50 of 0.515 µg/mL.

The molecule B14 had an EC50 of 0.5 µg/mL.

B15 displayed an EC50 of 0.778 µg/mL.

In turn, B16 came in with an EC50 of 0.338 µg/mL.

As to B17, the EC50 came out at 0.583 µg/mL.

Turning to B18, the response was half-maximal at 0.508 µg/mL (EC50).

In turn, B19 had an EC50 of 0.411 µg/mL.

In the case of B11, the EC50 worked out at 0.233 µg/mL.

A further assay deals with T1, human ZIP12 extracellular domain …. The experiment in a line: SPR; replicate 1. This is another data set of the same source.
For the molecule B20, the affinity, expressed as Kd, was 4.17 nM.

Molecule B1 gave a dissociation constant Kd of 0.605 nM.

B21 gave a dissociation constant (Kd) of 1.39 nM.

B22 had a Kd of 0.706 nM.

For a further assay the target is unchanged. The experiment in a line: ELISA.
As to B12, the response was half-maximal at 0.0016 µg/mL (EC50).

Molecule B13 yielded an EC50 of 0.0015 µg/mL.

Turning to B14, the EC50 worked out at 0.0019 µg/mL.

B15 yielded a concentration for a half-maximal effect (EC50) of 0.0018 µg/mL.

Consider B16, for which the EC50 was determined as 0.0016 µg/mL.

B17 displayed an EC50 of 0.002 µg/mL.

On to B18, for which a half-maximal response (EC50) required 0.0018 µg/mL.

Turning to B19, the EC50 was determined as 0.0018 µg/mL.

With B11, the response was half-maximal at 0.0017 µg/mL (EC50).

For another assay the target is unchanged. The experiment in a line: SPR; replicate 2.
In the case of B3, the Kd stood at 2.04 nM.

B4 registered a dissociation constant (Kd) of 0.889 nM.

B5 gave a Kd of 1.62 nM.

Take B6: binding was characterised by a dissociation constant (Kd) of 1.62 nM.

The molecule B7 returned a Kd of 1.95 nM.

B8 had a Kd of 1.14 nM.

B9 displayed a Kd of 1.96 nM.

Regarding B10, the Kd came to 1.41 nM.

Consider B11, for which the Kd was 0.757 nM.

For the next assay the target is unchanged. The experiment in a line: SPR; replicate 2. The source holds these as a separate data set.
In turn, B20 had a Kd of 1.83 nM.

In turn, B1 displayed a Kd of 0.785 nM.

Molecule B21 displayed a Kd of 1.39 nM.

For the molecule B22, binding was characterised by a dissociation constant (Kd) of 2.16 nM.

Source of the values: US20230357387A1 (published 2023).
